Starred links: 1 amine or outer side, 2 acyl side, 3 side chain; linkers in the order of their positions; H or OH if unused. Non-standard residues stand in square brackets, D forms with d. No end group written: not given here. *: point of attachment. Benzenesulfonyl(4-OMe) = COc1ccc(S(=O)(=O)*)cc1; E(Me) = COC(=O)CC[C@H](N[*:1])C(=O)[*:2]; Phe(3-Cl) = N[C@@H](Cc1cccc(Cl)c1)C(=O)O; Phe(3-F) = N[C@@H](Cc1cccc(F)c1)C(=O)O; Suc = O=C(CCC(=O)[*:2])[*:1]; Tos = Cc1ccc(S(=O)(=O)*)cc1
B1: Ts-DEGF(3F)WE-NH2 (peptide)
peptide: Tos-DEG[Phe(3-F)]WE-NH2
SMILES: Cc1ccc(S(=O)(=O)N[C@@H](CC(=O)O)C(=O)N[C@@H](CCC(=O)O)C(=O)NCC(=O)N[C@@H](Cc2cccc(F)c2)C(=O)N[C@@H](Cc2c[nH]c3ccccc23)C(=O)N[C@@H](CCC(=O)O)C(N)=O)cc1
notes: also called UBP024
B2: Ts-dEGF(3Cl)WE-NH2 (peptide)
peptide: Tos-[dD]EG[Phe(3-Cl)]WE-NH2
SMILES: Cc1ccc(S(=O)(=O)N[C@H](CC(=O)O)C(=O)N[C@@H](CCC(=O)O)C(=O)NCC(=O)N[C@@H](Cc2cccc(Cl)c2)C(=O)N[C@@H](Cc2c[nH]c3ccccc23)C(=O)N[C@@H](CCC(=O)O)C(N)=O)cc1
notes: also called UBP034
B3: 4-(MeO)-PhSO2-dEGF(3F)WE-NH2 (peptide)
peptide: {Benzenesulfonyl(4-OMe)}-[dD]EG[Phe(3-F)]WE-NH2
SMILES: COc1ccc(S(=O)(=O)N[C@H](CC(=O)O)C(=O)N[C@@H](CCC(=O)O)C(=O)NCC(=O)N[C@@H](Cc2cccc(F)c2)C(=O)N[C@@H](Cc2c[nH]c3ccccc23)C(=O)N[C@@H](CCC(=O)O)C(N)=O)cc1
notes: also called UBP022
B4: Suc-EGFFE-NH2 (peptide)
peptide: Suc-EGFFE-NH2
SMILES: NC(=O)[C@H](CCC(=O)O)NC(=O)[C@H](Cc1ccccc1)NC(=O)[C@H](Cc1ccccc1)NC(=O)CNC(=O)[C@H](CCC(=O)O)NC(=O)CCC(=O)O
notes: also called UBP002; succ-EGFFE

These binders were tested against T1, HisβTrCP/Skp1 and HisβTrCP/GSTSkp1 (immobilised on NTA Biacore chip) (UniProt Q9Y297 175-605; P63208 1-163) (assay: SPR (Biacore T200), single cycle run up to 1e-6 M, steady-state fit of the run shown; Rmax 2.156 RU, Chi² 0.00730 RU² [E]).
T1 construct: SPR: KD values from both surfaces (with or without the GST moiety) were averaged to give the apparent KD; also called βTrCP surfaces
T1 sequence (Q9Y297 175-605, chain 1 of 2): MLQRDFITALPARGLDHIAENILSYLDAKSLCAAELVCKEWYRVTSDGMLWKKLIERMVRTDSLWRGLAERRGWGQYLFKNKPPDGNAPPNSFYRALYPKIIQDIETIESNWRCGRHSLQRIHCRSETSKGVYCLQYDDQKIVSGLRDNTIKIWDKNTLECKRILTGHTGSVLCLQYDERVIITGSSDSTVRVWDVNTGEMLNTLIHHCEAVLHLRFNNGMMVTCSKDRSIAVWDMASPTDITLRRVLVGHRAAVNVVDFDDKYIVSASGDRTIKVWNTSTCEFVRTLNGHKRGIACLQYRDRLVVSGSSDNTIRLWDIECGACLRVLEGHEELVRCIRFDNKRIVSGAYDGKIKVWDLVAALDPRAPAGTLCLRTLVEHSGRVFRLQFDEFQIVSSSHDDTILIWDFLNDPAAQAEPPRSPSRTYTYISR
T1 sequence (P63208 whole entry, chain 2 of 2): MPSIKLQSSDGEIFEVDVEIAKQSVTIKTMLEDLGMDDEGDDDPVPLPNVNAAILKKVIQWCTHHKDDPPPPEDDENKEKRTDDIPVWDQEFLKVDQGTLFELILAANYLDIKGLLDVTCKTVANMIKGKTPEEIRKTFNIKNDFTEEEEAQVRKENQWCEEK
From the text: (§1) As βTrCP was His tagged, an NTA sensor chip was used. This sensor chip has a dextran surface matrix with immobilized nitrilotriacetic acid (NTA) which provides a means of capturing polyHis-tagged proteins through Nickel chelation. It was hoped that addition of Ni⁺ would orient the protein in a specific (and hopefully active) manner as it is covalently immobilised via amine coupling. Addition of EDC:NHS (N-ethyl-N′-(3-[…])-carbodiimide:N-hydroxysuccinimide) converts carboxyl groups on the dextran sensor chip surface to succinamide esters which readily form covalent bonds with primary amines. Each chip contains four flow cells (each a separate surface) which means that compounds/peptides can be passed over different forms of βTrCP and a reference surface simultaneously. If binding to βTrCP is occurring, responses should be the same (accounting for differences in density of surface etc) on each surface.
(§2) Small molecule/peptide samples to be assayed for binding to βTrCP surfaces, were provided as 10 mM stocks in 100% DMSO. All samples were tested in running buffer composed of 10 mM HEPES pH 7.4, 150 mM NaCl, 50 μM EDTA, 0.005% p20, and 1% DMSO. Serial dilutions were made using running buffer. […] KD values calculated from binding curves from both surfaces (with or without the GST moiety) were averaged to produce apparent KD's for each sample tested.

With Tos-[dD]EG[Phe(3-F)]W[E(Me)]-NH2 (also called UBP032) [Ts-dEGF(3F)WE(Me)-NH2] as the binder, how does the Kd read?
The Kd was 108 nM.

These binders were tested against T1, HisβTrCP/Skp1 and HisβTrCP/GSTSkp1 … (assay: SPR (Biacore T200), single cycle run up to 1e-6 M, steady-state fit of the run shown; Rmax 1.318 RU, Chi² 0.00773 RU² [D]).
From the text: as §1, §2

For B1, which Kd is on record?
The Kd was 40 nM.

These binders were tested against T2, βTrCP (tag cleaved and complexed with Skp1) (UniProt Q9Y297 175-605; P63208 1-163) (assay: FP competition vs fluorescein-IκB peptide).
T2 construct: Protein of the FP assay (0.035 µM); also called Beta Transducin repeat-containing protein; βTrCP/Skp1

How did the IC50 turn out when B2 was run?
Its IC50 is 10 nM.

B1 was tested. Which IC50 did it give?
The IC50 was 18 nM.

With Tos-[dD]EG[Phe(3-Cl)]W[E(Me)]-NH2 (also called UBP033) [Ts-dEGF(3Cl)WE(Me)-NH2] as the binder, how does the IC50 read?
The IC50 was 17 nM.

With Tos-[dD]EG[Phe(3-F)]W[E(Me)]-NH2 (also called UBP032) [Ts-dEGF(3F)WE(Me)-NH2] as the binder, how does the IC50 read?
The IC50 was 22 nM.

How did the IC50 turn out when B3 was run?
Its IC50 is 17 nM.

Target: T2, βTrCP (tag cleaved and complexed with …)
Assay: FP competition vs fluorescein-IκB peptide
Remark: another data set of the same source

B2 was tested. Which IC50 did it give?
Its IC50 is 10 nM.

How did the IC50 turn out when B1 was run?
Its IC50 is 18 nM.

Which IC50 does the source give for Tos-[dD]EG[Phe(3-Cl)]W[E(Me)]-NH2 (also called UBP033) [Ts-dEGF(3Cl)WE(Me)-NH2] here?
The IC50 was 17 nM.

Which IC50 does the source give for Tos-[dD]EG[Phe(3-F)]W[E(Me)]-NH2 (also called UBP032) [Ts-dEGF(3F)WE(Me)-NH2] here?
The IC50 was 22 nM.

B3 was tested. Which IC50 did it give?
The IC50 was 17 nM.

What follows are binders tested against T1, HisβTrCP/Skp1 and HisβTrCP/GSTSkp1 … (assay: SPR (Biacore T200), single cycle run up to 1e-6 M, steady-state fit of the run shown; Rmax 2.093 RU, Chi² 0.0110 RU² [A]).
From the text: as §1, §2

For Tos-[dD]EG[Phe(3-Cl)]W[E(Me)]-NH2 (also called UBP033) [Ts-dEGF(3Cl)WE(Me)-NH2], which Kd is on record?
Its Kd is 21.6 nM.

What follows are binders tested against T3, βTrCP (tag cleaved and complexed with Skp1) (UniProt Q9Y297 175-605; P63208 1-163) (assay: FP competition, 10 nM fluorescein-IκB peptide on βTrCP/Skp1).
T3 construct: Protein of the fluorescence polarisation assay, 0.035 µM; also called Beta Transducin repeat-containing protein; βTrCP/Skp1
Experimental: (§3) Binding of the compounds to βTrCP was assessed using a fluorescence polarisation (FP) binding assay. The FP assay is an in vitro binding assay using a fluorescein-tagged IkB peptide at 10 nM to mimic substrate binding to βTrCP, and was performed as described above.
Four sequences were selected for re-synthesis and testing in the FP assay, which was performed as described above along with 4 negative controls.

Which IC50 does the source give for Phth-EGFFE-NH2 [Phth-EGFFE-NH2] here?
Its IC50 is 10.9 µM.

How did the IC50 turn out when B4 was run?
Its IC50 is 3.18 µM.

Each binder was assayed against T1, HisβTrCP/Skp1 and HisβTrCP/GSTSkp1 … (assay: SPR, Biacore T200, βTrCP/Skp1 immobilised).
From the text: as §1
Small molecule/peptide samples to be assayed for binding to βTrCP surfaces, were provided as 10 mM stocks in 100% DMSO. All samples were tested in running buffer composed of 10 mM HEPES pH 7.4, 150 mM NaCl, 50 μM EDTA, 0.005% p20, and 1% DMSO. Serial dilutions were made using running buffer. Samples were tested over varying concentrations up to a maximum of 100 μM. Two methods of measuring the SPR response were employed: single cycle kinetics which measures the response across different concentrations of sample within a single cycle (no regeneration of surface) and a method that measures the response at a given concentration in each cycle and includes a regeneration wash after each sample injection. The regeneration solution used was the same as running buffer, but included 500 mM NaCl. Data was fitted using Biacore T200 evaluation software. KD values calculated from binding curves from both surfaces (with or without the GST moiety) were averaged to produce apparent KD's for each sample tested.

B2 was tested. Which Kd did it give?
Its Kd is 154 nM.

With B1 as the binder, how does the Kd read?
The Kd was 19 nM.

For Tos-[dD]EG[Phe(3-Cl)]W[E(Me)]-NH2 (also called UBP033) [Ts-dEGF(3Cl)WE(Me)-NH2], which Kd is on record?
The Kd was 47 nM.

With Tos-[dD]EG[Phe(3-F)]W[E(Me)]-NH2 (also called UBP032) [Ts-dEGF(3F)WE(Me)-NH2] as the binder, how does the Kd read?
Its Kd is 170 nM.

Which Kd does the source give for B3 here?
Its Kd is 48 nM.

The binders below were run against T1, HisβTrCP/Skp1 and HisβTrCP/GSTSkp1 … (assay: SPR (Biacore T200), single cycle run up to 1e-6 M, steady-state fit of the run shown; Rmax 3.459 RU, Chi² 0.00452 RU² [C]).
From the text: as §1, §2

Which Kd does the source give for B3 here?
Its Kd is 49.8 nM.

These binders were tested against Fbw7 (UniProt Q969H0 263-707, limits assumed) (assay: cell-based or functional assay).
Sequence of Fbw7 (Q969H0 263-707 limits assumed): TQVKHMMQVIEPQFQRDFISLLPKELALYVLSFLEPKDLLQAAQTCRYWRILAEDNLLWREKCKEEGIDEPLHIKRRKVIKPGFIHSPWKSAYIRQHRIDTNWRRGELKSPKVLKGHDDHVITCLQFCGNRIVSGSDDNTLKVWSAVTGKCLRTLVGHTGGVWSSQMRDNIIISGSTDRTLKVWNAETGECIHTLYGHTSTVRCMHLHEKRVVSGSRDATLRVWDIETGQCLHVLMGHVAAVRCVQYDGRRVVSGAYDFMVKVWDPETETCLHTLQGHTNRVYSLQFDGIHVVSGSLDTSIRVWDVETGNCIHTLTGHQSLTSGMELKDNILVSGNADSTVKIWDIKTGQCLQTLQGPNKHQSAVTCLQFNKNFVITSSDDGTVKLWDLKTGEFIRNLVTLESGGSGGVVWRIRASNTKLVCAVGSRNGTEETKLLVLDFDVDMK

Which results are given for B2?
% Inhibition Fbw7 @ 10 µM: 8%; % Inhibition Fbw7 @ (100 µM): 6%

What does the source list for B1?
% Inhibition Fbw7 @ 10 µM: 0%; % Inhibition Fbw7 @ (100 µM): 8%

Which “% Inhibition Fbw7 @ 10 µM” value does the source give for Tos-[dD]EG[Phe(3-Cl)]W[E(Me)]-NH2 (also called UBP033) [Ts-dEGF(3Cl)WE(Me)-NH2] here?
The value was 7%.

What about the “% Inhibition Fbw7 @ (100 µM)” value of the same binder?
Its value is 11%.

Which results are given for Tos-[dD]EG[Phe(3-F)]W[E(Me)]-NH2 (also called UBP032) [Ts-dEGF(3F)WE(Me)-NH2]?
% Inhibition Fbw7 @ 10 µM: 4%; % Inhibition Fbw7 @ (100 µM): 10%

With B3 as the binder, how does the “% Inhibition Fbw7 @ 10 µM” value read?
The value was 0%.

And the “% Inhibition Fbw7 @ (100 µM)” value?
The value was 18%.

These binders were tested against Skp2 (UniProt Q13309 1-424, limits assumed) (assay: cell-based or functional assay).
Sequence of Skp2 (Q13309 whole entry): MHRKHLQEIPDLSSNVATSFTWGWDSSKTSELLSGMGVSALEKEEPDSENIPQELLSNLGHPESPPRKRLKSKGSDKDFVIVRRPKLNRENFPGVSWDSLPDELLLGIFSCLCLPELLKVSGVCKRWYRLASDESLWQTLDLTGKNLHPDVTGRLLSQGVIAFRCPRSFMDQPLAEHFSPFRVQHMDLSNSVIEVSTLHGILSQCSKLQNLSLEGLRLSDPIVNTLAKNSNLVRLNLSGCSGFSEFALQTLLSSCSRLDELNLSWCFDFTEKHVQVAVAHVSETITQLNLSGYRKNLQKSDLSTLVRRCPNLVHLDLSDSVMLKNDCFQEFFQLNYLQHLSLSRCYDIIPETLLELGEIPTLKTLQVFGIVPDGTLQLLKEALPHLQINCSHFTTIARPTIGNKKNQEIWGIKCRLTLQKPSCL

B2 was tested. Which “% Inhibition Skp2 @ 10 µM” value did it give?
The value was 0%.

And the “% Inhibition Skp2 @ (100 µM)” value?
Its value is 0%.

With B1 as the binder, how does the “% Inhibition Skp2 @ 10 µM” value read?
Its value is 0%.

And the “% Inhibition Skp2 @ (100 µM)” value?
The value was 7%.

For Tos-[dD]EG[Phe(3-Cl)]W[E(Me)]-NH2 (also called UBP033) [Ts-dEGF(3Cl)WE(Me)-NH2], which “% Inhibition Skp2 @ 10 µM” value is on record?
Its value is 0%.

And the “% Inhibition Skp2 @ (100 µM)” value?
Its value is 10%.

Tos-[dD]EG[Phe(3-F)]W[E(Me)]-NH2 (also called UBP032) [Ts-dEGF(3F)WE(Me)-NH2] was tested. Which “% Inhibition Skp2 @ 10 µM” value did it give?
Its value is 0%.

And the “% Inhibition Skp2 @ (100 µM)” value?
Its value is 0%.

For B3, which “% Inhibition Skp2 @ 10 µM” value is on record?
The value was 7%.

What about the “% Inhibition Skp2 @ (100 µM)” value of the same binder?
The value was 12%.

What follows are binders tested against T1, HisβTrCP/Skp1 and HisβTrCP/GSTSkp1 … (assay: SPR (Biacore T200), single cycle run up to 1e-6 M, steady-state fit of the run shown; Rmax 4.264 RU, Chi² 0.00601 RU² [B]).
From the text: as §1, §2

For B2, which Kd is on record?
The Kd was 80.8 nM.

Target: T3, βTrCP (tag cleaved and complexed with …)
Assay: FP competition, 10 nM fluorescein-IκB peptide on βTrCP/Skp1
Remark: another data set of the same source
Experimental: as §3

With DEGFFE-NH2 [DEGFFE-NH2] as the binder, how does the IC50 read?
Its IC50 is 43.6 µM.

Reference: patent US20190106460A1 (published 2019)
